Assay results published in the supplement of paper PMC10126150.
± gives the standard deviation of the averaged measurements.

System: ATP
Test: switch fluorescence ratio, 500 uM ATP over buffer (Cy3 cluster intensity, sum of 5 cycles each) (fold (ratio)); higher = stronger signal-on switching upon ATP binding; sequences stand for … in TCGTCGGCAGCGTCAGATGTGTATAAGAGACAGTTTTTTTTTTTTTTTTTTTTTTTTT…TC
Settings: aptamer strand: ATP DNA aptamer (quencher-CACCTGGGGGAGTATTGCGGAGGAAGG + anchor), 100 nM annealed; ATP concentration: 500 uM
Summary of the method: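 Exposure to 500 uM ATP lasted 15 min at 22 °C before imaging, and a selection-buffer image was taken beforehand, for Cy3-labelled switching-strand clusters on a modified Illumina MiSeq flow-cell annealed to 100 nM quencher-labelled ATP aptamer. Five buffer/ATP cycles were run with NaOH stripping and re-annealing between them. The fluorescence ratio per cluster is summed target-cycle over summed buffer-cycle Cy3 intensity, averaged per switch-domain sequence. Clusters outside 100-1000 RFU were excluded.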

| Sequence | switch fluorescence ratio |
| --- | --- |
| TAATTTGTTC | 1 ± 0.026 |
| TAATTTTAAA | 0.988 ± 0.018 |
| TAATTTTAAT | 1.025 ± 0.0087 |
| TAATTTTATA | 0.9789 ± 0.0046 |
| TAATTTTTGC | 1.02 ± 0.043 |
| TAATTTTTTG | 0.997 ± 0.021 |
| TACAAATCTA | 1 ± 0.036 |
| TACAAATGTT | 1 ± 0.018 |
| TACAACATTT | 1.06 ± 0.015 |
| TACAACTAGA | 1 ± 0.024 |
| TACAAGCTGT | 1.01 ± 0.014 |
| TACAAGGAGA | 1 ± 0.012 |
| TACAAGGGTA | 1.01 ± 0.06 |
| TACAAGTTTT | 0.986 ± 0.0093 |
| TACAATTTGA | 0.954 ± 0.018 |
| TACAATTTTA | 1.006 ± 0.0041 |
| TACACGCCTT | 1.05 ± 0.015 |
| TACAGAAGCG | 1.033 ± 0.0073 |
| TACAGAATGT | 1.03 ± 0.023 |
| TACAGAGGTT | 1.01 ± 0.059 |
| TACAGATTTG | 1.01 ± 0.037 |
| TACAGCTTCT | 1.005 ± 0.0065 |
| TACAGGGATC | 0.993 ± 0.027 |
| TACAGGGCCT | 0.9882 ± 0.0085 |
| TACAGGGGGA | 1.09 ± 0.14 |
| TACAGGTCAT | 1 ± 0.018 |

| Sequence | switch fluorescence ratio |
| --- | --- |
| TACAGGTCGG | 1 ± 0.033 |
| TACAGTAGAT | 1.06 ± 0.038 |
| TACAGTGGAG | 1.011 ± 0.0044 |
| TACAGTTGTA | 0.971 ± 0.06 |
| TACATATGTC | 1.04 ± 0.077 |
| TACATCGTGC | 0.992 ± 0.016 |
| TACATGCATG | 1.001 ± 0.0031 |
| TACATGGACC | 1.12 ± 0.025 |
| TACATTAATA | 1.054 ± 0.0049 |
| TACATTCGTC | 1.07 ± 0.075 |
| TACATTTCCA | 1.04 ± 0.04 |
| TACATTTTTT | 1.01 ± 0.022 |
| TACCACCGGT | 1.02 ± 0.047 |
| TACCAGAGCA | 1.08 ± 0.022 |
| TACCCTGAAA | 1.022 ± 0.0035 |
| TACCCTTCGT | 1.11 ± 0.013 |
| TACCGGGTGG | 1.06 ± 0.027 |
| TACCTAAACG | 1.08 ± 0.033 |
| TACCTTTTAA | 1.02 ± 0.026 |
| TACCTTTTGG | 0.99 ± 0.026 |
| TACGAAATTG | 1.06 ± 0.049 |
| TACGAGTGGT | 0.99394 ± 0.00054 |
| TACGATAGTC | 1.06 ± 0.069 |
| TACGATGTGG | 1.007 ± 0.0088 |
| TACGATTAGT | 0.9995 ± 0.0053 |
| TACGCACGTA | 1.31 ± 0.17 |

| Sequence | switch fluorescence ratio |
| --- | --- |
| TACGCATAAT | 1.37 ± 0.014 |
| TACGCTATAA | 2.824 ± 0.0042 |
| TACGGAAAGT | 1.02 ± 0.015 |
| TACGGAGGGC | 1.02 ± 0.05 |
| TACGGCAGTG | 0.998 ± 0.025 |
| TACGGCGCGA | 1.39 ± 0.58 |
| TACGGCTAAG | 1.07 ± 0.047 |
| TACGGGGCGG | 1.36 ± 0.64 |
| TACGGGGTG | 1.05 ± 0.035 |
| TACGGGGTTT | 0.996 ± 0.051 |
| TACGGGTGGG | 1.169 ± 0.01 |
| TACGGTAGGA | 0.9836 ± 0.006 |
| TACGGTGGGC | 0.977 ± 0.018 |
| TACGGTTTGG | 0.988 ± 0.056 |
| TACGGTTTTT | 0.967 ± 0.019 |
| TACGTACAGC | 1.7 ± 0.076 |
| TACGTGGCGG | 1.02 ± 0.02 |
| TACGTGGTTG | 0.99 ± 0.014 |
| TACGTTCAGG | 1.02 ± 0.011 |
| TACGTTTCC | 1.138 ± 0.0089 |
| TACTAACCAT | 1.12 ± 0.066 |
| TACTAAGTGG | 1.05 ± 0.015 |
| TACTAGGGGA | 1.004 ± 0.0034 |
| TACTAGGTTT | 0.977 ± 0.019 |
| TACTAGTACA | 1.09 ± 0.018 |
| TACTATGGGC | 1.03 ± 0.055 |

| Sequence | switch fluorescence ratio |
| --- | --- |
| TACTATGGTC | 1.01 ± 0.07 |
| TACTATTTGT | 1.04 ± 0.063 |
| TACTATTTTT | 1 ± 0.018 |
| TACTCACTTC | 1.21 ± 0.035 |
| TACTCAGTGG | 1.01 ± 0.022 |
| TACTCCAAGA | 2.98 ± 1.1 |
| TACTCGTTGA | 1.04 ± 0.021 |
| TACTCTCCTT | 1.09 ± 0.016 |
| TACTGAATTA | 1.03 ± 0.03 |
| TACTGATTTG | 1.02 ± 0.017 |
| TACTGGGACG | 1.004 ± 0.0068 |
| TACTGGGGCG | 0.997 ± 0.082 |
| TACTGGGGTA | 1.02 ± 0.028 |
| TACTGGTCCA | 1.051 ± 0.0087 |
| TACTGGTTCT | 0.984 ± 0.064 |
| TACTGTGTTA | 0.979 ± 0.026 |
| TACTTAAGTT | 1.01 ± 0.019 |
| TACTTAGGGA | 1.031 ± 0.0085 |
| TACTTATGTG | 1.01 ± 0.02 |
| TACTTGAGGC | 1.11 ± 0.21 |
| TACTTGGGTC | 1.06 ± 0.03 |
| TACTTGTCGG | 0.985 ± 0.025 |
| TACTTGTTAT | 0.989 ± 0.034 |
| TACTTTAGGT | 1.05 ± 0.019 |
| TACTTTATTT | 1.16 ± 0.21 |
| TACTTTCCCG | 1.29 ± 0.13 |

| Sequence | switch fluorescence ratio |
| --- | --- |
| TACTTTGCG | 1.01 ± 0.017 |
| TACTTTGCTG | 1.02 ± 0.066 |
| TACTTTTCAA | 1.01 ± 0.011 |
| TACTTTTGAA | 0.977 ± 0.022 |
| TACTTTTGCA | 0.985 ± 0.025 |
| TACTTTTTTT | 1.01 ± 0.037 |
| TAGAAAGCCT | 1.06 ± 0.045 |
| TAGAAAGTGT | 1.02 ± 0.019 |
| TAGAAATTGT | 0.997 ± 0.039 |
| TAGAAATTTG | 0.998 ± 0.03 |
| TAGAACATGG | 0.964 ± 0.061 |
| TAGAAGGGAT | 0.987 ± 0.016 |
| TAGAAGGGGA | 0.994 ± 0.044 |
| TAGAAGTCTG | 1.06 ± 0.012 |
| TAGAATCGTT | 0.97 ± 0.05 |
| TAGAATGGAA | 1.02 ± 0.012 |
| TAGAATGTGT | 1.027 ± 0.0043 |
| TAGACTTTAG | 1.0314 ± 0.0007 |
| TAGACTTTAT | 1.02 ± 0.029 |
| TAGAGAAATT | 0.976 ± 0.023 |
| TAGAGACTAA | 0.979 ± 0.029 |
| TAGAGCGGGG | 0.99 ± 0.02 |
| TAGAGGAGTG | 0.9599 ± 0.0086 |
| TAGAGGCTAA | 0.977 ± 0.013 |
| TAGAGGGCCA | 1.01 ± 0.044 |
| TAGAGGGGGC | 0.987 ± 0.025 |

| Sequence | switch fluorescence ratio |
| --- | --- |
| TAGAGTAGAT | 1.01 ± 0.02 |
| TAGATAAACT | 0.9969 ± 0.0039 |
| TAGATAGAAT | 1 ± 0.045 |
| TAGATAGCTT | 1.0112 ± 0.001 |
| TAGATATGGT | 0.989 ± 0.021 |
| TAGATCATGT | 1.016 ± 0.0026 |
| TAGATGAGAG | 0.969 ± 0.012 |
| TAGATGATGT | 1.004 ± 0.01 |
| TAGATGGGGT | 1.01 ± 0.031 |
| TAGATGGGTC | 1.01 ± 0.013 |
| TAGATGGTAG | 0.973 ± 0.016 |
| TAGATGGTTT | 0.97 ± 0.036 |
| TAGATGTATT | 0.974 ± 0.013 |
| TAGATTCAGG | 1.004 ± 0.0054 |
| TAGATTGGCG | 0.981 ± 0.043 |
| TAGATTTCGT | 0.9797 ± 0.0052 |
| TAGCAAAAAG | 1.02 ± 0.031 |
| TAGCAAAAGG | 1.03 ± 0.015 |
| TAGCAATGTT | 1.64 ± 0.52 |
| TAGCACTATC | 1.35 ± 0.076 |
| TAGCAGAGGG | 1.01 ± 0.023 |
| TAGCAGTATT | 1.07 ± 0.065 |
| TAGCATCTGG | 0.98 ± 0.039 |
